This note sets out measurements from patent US20060160117.

The target in one data set is T1, MTase(R124) (UniProt P10484).
T1 sequence 1: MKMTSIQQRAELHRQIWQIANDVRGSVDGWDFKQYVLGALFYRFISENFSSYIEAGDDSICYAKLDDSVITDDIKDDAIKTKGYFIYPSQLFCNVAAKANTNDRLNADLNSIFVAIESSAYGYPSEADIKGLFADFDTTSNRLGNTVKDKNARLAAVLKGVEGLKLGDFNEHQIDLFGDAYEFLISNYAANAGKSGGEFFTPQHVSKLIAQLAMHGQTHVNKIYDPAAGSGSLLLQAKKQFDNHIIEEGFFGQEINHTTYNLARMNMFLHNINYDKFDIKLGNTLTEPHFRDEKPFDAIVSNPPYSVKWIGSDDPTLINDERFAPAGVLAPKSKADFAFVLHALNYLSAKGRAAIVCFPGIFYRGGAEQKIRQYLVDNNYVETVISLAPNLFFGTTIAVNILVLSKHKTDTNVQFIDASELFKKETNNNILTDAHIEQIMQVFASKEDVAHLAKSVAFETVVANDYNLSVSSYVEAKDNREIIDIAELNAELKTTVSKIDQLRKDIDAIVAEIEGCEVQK
T1 sequence 2: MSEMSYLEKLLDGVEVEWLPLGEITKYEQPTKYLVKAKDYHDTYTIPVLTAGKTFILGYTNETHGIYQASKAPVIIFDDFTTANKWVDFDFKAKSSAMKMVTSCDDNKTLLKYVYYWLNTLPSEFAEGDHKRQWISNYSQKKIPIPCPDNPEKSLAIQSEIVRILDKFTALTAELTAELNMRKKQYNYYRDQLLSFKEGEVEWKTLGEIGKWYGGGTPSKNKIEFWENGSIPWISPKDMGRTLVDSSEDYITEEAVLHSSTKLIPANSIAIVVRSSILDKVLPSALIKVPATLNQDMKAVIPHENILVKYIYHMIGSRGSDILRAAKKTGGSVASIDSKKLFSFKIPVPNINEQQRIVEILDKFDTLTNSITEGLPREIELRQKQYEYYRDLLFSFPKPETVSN

The target of another data set is T2, MTase(R124), P10484.
T2 chain 1: T1 sequence 1
T2 chain 2: T1 sequence 2

For the molecule HsdR(prrI), the “DNA cleavage by the hybrid endonuclease” value with MTase(R124) is “this hybrid enzyme can only cleave DNA in the presence of extremely high concentrations of HsdR(prrI)”.

B1: HsdR(R124) (protein)
chain: MTHQTHTIAESNNFIVLDKYIKAEPTGDSYQSESDLERELIQDLRNQGYEFISVKSQSAMLANVREQLQNLNGVVFNDSEWRRFTEQYLDNPSDGILDKTRKIHIDYICDFIFDDERLENIYLIDKKNLMRNKVQIIQQFEQAGSHANRYDVTILVNGLPLVQIELKKRGVAIREAFNQIHRYSKESFNSENSLFKYLQLFVISNGTDTRYFANTTKRDKNSFDFTMNWAKSDNTLIKDLKDFTATCFQKHTLLNVLVNYSVFDSSQTLLVMRPYQIAATERILWKIKSSFTAKNWSKPESGGYIWHTTGSGKTLTSFKAARLATELDFIDKVFFVVDRKDLDYQTMKEYQRFSPDSVNGSENTAGLKRNLDKDDNKIIVTTIQKLNNLMKAESDLPVYNQQVVFIFDECHRSQFGEAQKNLKKKFKRYYQFGFTGTPIFPENALGSETTASVFGRELHSYVITDAIRDEKVLKFKVDYNDVRPQFKSLETETDEKKLSAAENQQAFLHPMRIQEITQYILNNFRQKTHRTFPGSKGFNAMLAVSSVDAAKAYYATFKRLQEEAANKSATYKPLRIATIFSFAANEEQNAIGEISDETFDTSAMDSSAKEFLDAAIREYNSHFKTNFSTDSNGFQNYYRDLAQRVKNQDIDLLIVVGMFLTGFDAPTLNTLFVDKNLRYHGLMQAFSRTNRIYDATKTFGNIVTFRDLERSTIDAITLFGDKNTKNVVLEKSYTEYMEGFTDAATGEAKRGFMTVVSELEQRFPDPTSIESEKEKKDFVKLFGEYLRAENILQNYDEFATLKALQQIDLSDPVAVEKFKAEHYVDDEKFAELQTIRLPADRKIQDYRSAYNDIRDWQRREKEAEKKEKSTTDWDDVVFEVDLLKSQEINLDYILGLIFEHNRQNKGKGEMIEEVKRLIRSSLGNRAKEGLVVDFIQQTNLDDLPDKASIIDAFFTFAQREQQREAEALIKEENLNEDAAKRYIRTSLKREYATENGTELNETLPKLSPLNPQYKTKKQAVFQKIVSFIEKFKGVGGKI
Take B1: the “cleavage of pCFD30 plasmid DNA (agarose gel)” value with MTase(R124), P10484 is “The R2-complex was found to cleave the plasmid DNA, as expected. No cleavage was observed for the R1-complex”.
